Assay results taken from PMC8502153, “Two adjacent C-terminal mutations enable expression of aryl-alcohol oxidase from Pleurotus eryngii in Pichia pastoris” (Applied Microbiology and Biotechnology, 2021).

Experiments:
[1] = molecular target: T1, PeAAO1 (Pleurotus eryngii, UniProt O94219, V367A/K583E/Q584R); experiment: flavin absorption spectrum; FAD released on heat denaturation; assay type: binding; details: non-covalently bound; absorbance maxima 463 and 383 nm
T1 construct: gene aao; secreted glycoprotein from P. pastoris X-33 (codon-optimised gene in pPICZA); signal peptide removed; theoretical 61 kDa, about 100 kDa on SDS-PAGE, 70 kDa deglycosylated; only mutants expressed (ER, NER, AER)

[2] = molecular target: T2, PeAAO1 (Pleurotus eryngii, UniProt O94219, K583E/Q584R); experiment: as above; assay type: binding; details: non-covalently bound; absorbance maxima 463 and 383 nm
T2 construct: gene aao; secreted glycoprotein from P. pastoris X-33 (codon-optimised gene in pPICZA); signal peptide removed; theoretical 61 kDa, about 100 kDa on SDS-PAGE, 70 kDa deglycosylated; only mutants expressed (ER, NER, AER)

[3] = molecular target: T3, PeAAO1 (Pleurotus eryngii, UniProt O94219, D361N/K583E/Q584R); experiment: as above; assay type: binding; details: non-covalently bound; absorbance maxima 463 and 383 nm
T3 construct: gene aao; secreted glycoprotein from P. pastoris X-33 (codon-optimised gene in pPICZA); signal peptide removed; theoretical 61 kDa, about 100 kDa on SDS-PAGE, 70 kDa deglycosylated; only mutants expressed (ER, NER, AER)

[4] = substrate: COc1ccc(CO)cc1OC; experiment: purified protein; assay type: biochemical, Pleurotus eryngii; details: 100 mM sodium phosphate pH 6, 25 °C, O2 as co-substrate, glycosylated enzyme

Row | Molecule | flavin absorption spectrum; FAD released on heat denaturation [1] | flavin absorption spectrum; FAD released on heat denaturation [2] | flavin absorption spectrum; FAD released on heat denaturation [3] | Km [4] [µM] | kcat [4] [s⁻¹] | kcat/Km [4] [M⁻¹ s⁻¹]
1 | Cc1cc2nc3c(=O)[nH]c(=O)nc-3n(C[C@H](O)[C@H](O)[C@H](O)COP(=O)(O)OP(=O)(O)OC[C@H]3O[C@@H](n4cnc5c(N)ncnc54)[C@H](O)[C@@H]3O)c2cc1C [FAD] | calculated based on absorbance of the released FAD after heat precipitation of the apoprotein | calculated based on absorbance of the released FAD after heat precipitation of the apoprotein | calculated based on absorbance of the released FAD after heat precipitation of the apoprotein |  |  | 
2 | PeAAO1 (Pleurotus eryngii; K583E/Q584R) (protein, secreted glycoprotein from P. pastoris X-33 (codon-optimised gene in pPICZA); signal peptide removed; theoretical 61 kDa, about 100 kDa on SDS-PAGE, 70 kDa deglycosylated; only mutants expressed (ER, NER, AER)) ADFDYVVVGAGNAGNVVAARLTEDPDVSVLVLEAGVSDENVLGAEAPLLAPGLVPNSIFDWNYTTTAQAGYNGRSIAYPRGRMLGGSSSVHYMVMMRGSTEDFDRYAAVTGDEGWNWDNIQQFVRKNEMVVPPADNHNTSGEFIPAVHGTNGSVSISLPGFPTPLDDRVLATTQEQSEEFFFNPDMGTGHPLGISWSIASVGNGQRSSSSTAYLRPAQSRPNLSVLINAQVTKLVNSGTTNGLPAFRCVEYAEQEGAPTTTVCAKKEVVLSAGSVGTPILLQLSGIGDENDLSSVGIDTIVNNPSVGRNLSDHLLLPAAFFVNSNQTFDNIFRDSSEFNVDLDQWTNTRTGPLTALIANHLAWLRLPSNSSIFQTFPDPAAGPNSAHWETIFSNQWFHPAIPRPDTGSFMSVTNALISPVARGDIKLATSNPFDKPLINPQYLSTEFDIFTMIQAVKSNLRFLSGQAWADFVIRPFDPRLRDPTDDAAIESYIRDNANTIFHPVGTASMSPRGASWGVVDPDLKVKGVDGLRIVDGSILPFAPNAHTQGPIYLVGERGADLIKADQ |  |  |  | 549.0 ± 12.6 | 54.9 ± 0.02 | 100000
3 | PeAAO1 (Pleurotus eryngii; K583E/Q584R/V367A) (protein, secreted glycoprotein from P. pastoris X-33 (codon-optimised gene in pPICZA); signal peptide removed; theoretical 61 kDa, about 100 kDa on SDS-PAGE, 70 kDa deglycosylated; only mutants expressed (ER, NER, AER)) ADFDYVVVGAGNAGNVVAARLTEDPDVSVLVLEAGVSDENVLGAEAPLLAPGLVPNSIFDWNYTTTAQAGYNGRSIAYPRGRMLGGSSSVHYMVMMRGSTEDFDRYAAVTGDEGWNWDNIQQFVRKNEMVVPPADNHNTSGEFIPAVHGTNGSVSISLPGFPTPLDDRVLATTQEQSEEFFFNPDMGTGHPLGISWSIASVGNGQRSSSSTAYLRPAQSRPNLSVLINAQVTKLVNSGTTNGLPAFRCVEYAEQEGAPTTTVCAKKEVVLSAGSVGTPILLQLSGIGDENDLSSVGIDTIVNNPSVGRNLSDHLLLPAAFFVNSNQTFDNIFRDSSEFNADLDQWTNTRTGPLTALIANHLAWLRLPSNSSIFQTFPDPAAGPNSAHWETIFSNQWFHPAIPRPDTGSFMSVTNALISPVARGDIKLATSNPFDKPLINPQYLSTEFDIFTMIQAVKSNLRFLSGQAWADFVIRPFDPRLRDPTDDAAIESYIRDNANTIFHPVGTASMSPRGASWGVVDPDLKVKGVDGLRIVDGSILPFAPNAHTQGPIYLVGERGADLIKADQ |  |  |  | 541.9 ± 6.4 | 58.5 ± 0.03 | 108000
4 | PeAAO1 (Pleurotus eryngii; D361N/K583E/Q584R) (protein, secreted glycoprotein from P. pastoris X-33 (codon-optimised gene in pPICZA); signal peptide removed; theoretical 61 kDa, about 100 kDa on SDS-PAGE, 70 kDa deglycosylated; only mutants expressed (ER, NER, AER)) ADFDYVVVGAGNAGNVVAARLTEDPDVSVLVLEAGVSDENVLGAEAPLLAPGLVPNSIFDWNYTTTAQAGYNGRSIAYPRGRMLGGSSSVHYMVMMRGSTEDFDRYAAVTGDEGWNWDNIQQFVRKNEMVVPPADNHNTSGEFIPAVHGTNGSVSISLPGFPTPLDDRVLATTQEQSEEFFFNPDMGTGHPLGISWSIASVGNGQRSSSSTAYLRPAQSRPNLSVLINAQVTKLVNSGTTNGLPAFRCVEYAEQEGAPTTTVCAKKEVVLSAGSVGTPILLQLSGIGDENDLSSVGIDTIVNNPSVGRNLSDHLLLPAAFFVNSNQTFDNIFRNSSEFNVDLDQWTNTRTGPLTALIANHLAWLRLPSNSSIFQTFPDPAAGPNSAHWETIFSNQWFHPAIPRPDTGSFMSVTNALISPVARGDIKLATSNPFDKPLINPQYLSTEFDIFTMIQAVKSNLRFLSGQAWADFVIRPFDPRLRDPTDDAAIESYIRDNANTIFHPVGTASMSPRGASWGVVDPDLKVKGVDGLRIVDGSILPFAPNAHTQGPIYLVGERGADLIKADQ |  |  |  | 546.7 ± 5.8 | 68.2 ± 0.05 | 125000
